Test results as given in patent publication US20220313607A1.

Assays:
[1] = biological target: Human Beta-Amyloid (1-40) (human); assay: SPR (ProteOn), Amyposomes flowed over immobilised fibrils; concentration as exposed PA; Aβ1-40 fibrils
[2] = biological target: Recombinant β2-microglobulin variant β2m_ΔN6 (Pongo pygmaeus (Bornean orangutan)) (UniProt P16213); assay: cell-based or functional assay
[3] = biological target: Human Beta-Amyloid (1-40) (human); assay: cell-based or functional assay
[4] = biological target: Recombinant TTR variant TTR_S52P; assay: cell-based or functional assay
[5] = biological target: Truncated amyloidogenic form of Serum Amyloid A, SAA(1-76) (Homo sapiens (Human)) (UniProt P0DJI8); assay: cell-based or functional assay
[6] = biological target: Recombinant β2-microglobulin variant β2m_D76N (Pongo pygmaeus (Bornean orangutan)) (UniProt P16213); assay: cell-based or functional assay
[7] = biological target: Recombinant TTR variant TTR_S52P; assay: SPR (ProteOn), Amyposomes flowed over immobilised aggregates; concentration as exposed PA; TTR aggregates

Human Beta-Amyloid (1-40) (human), sequence (peptide, as listed by the source): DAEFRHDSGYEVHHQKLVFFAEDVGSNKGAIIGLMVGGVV
UniProt P0DJI8, sequence (P0DJI8 other isoform, or with tags, fused parts or gaps limits assumed): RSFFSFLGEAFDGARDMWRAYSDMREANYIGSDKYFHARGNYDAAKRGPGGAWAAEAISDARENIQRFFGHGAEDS

Amyposomes (liposomes composed of sphingomyelin/cholesterol, functionalized with phosphatidic acid and with mApoE peptide covalently linked to the outer surface)
Kd [1]: 0.12 µM
ThT fluorescence, aggregation extent with respect to protein alone, protein:Amyposomes 1:50 [2]: 20%
ThT fluorescence, residual aggregates, protein:Amyposomes 1:50 [2]: 50%
ThT fluorescence, residual aggregates after 24 h, peptide:Amyposomes 1:50 [3]: 40%
ThT fluorescence, residual aggregates after 5 days, peptide:Amyposomes 1:50 [3]: 10%
ThT fluorescence, aggregation with respect to protein alone, TTR:Amyposomes 1:50 [4]: 40%
ThT fluorescence, residual aggregates after 5 h, TTR:Amyposomes 1:50 [4]: 5%
ThT fluorescence, residual aggregates after 72 h, protein:Amyposomes 1:50 [5]: 30%
ThT fluorescence, final aggregation extent with respect to protein alone, D76N:Amyposomes 1:50 [6]: 36%
ThT fluorescence, residual aggregates after 3 days, protein:Amyposomes 1:30 and 1:50 [6]: 15%
Kd [7]: 14.2 µM
